The values that follow come from patent publication US6645939 (MERCK, dated 2003).

For assay [1], the target named is T1, α4β7 integrin on RPMI-8866 cells (human, UniProt P13612 34-1032; P26010 20-798).
T1 construct: whole, on cells; Endogenous integrin on RPMI-8866 cells; also called LPAM-1
The assay is described as follows: radiolabeled VCAM-Ig (<500 pM) on RPMI-8866 cells, MnCl2, filter plates, scintillation counting. The procedure: (§1) Compounds of this invention were prepared in DMSO at 100× the desired final assay concentration. Final concentrations were selected from a range between 0.001 nM-100 μM. […] The plates were incubated at room temperature for 45 minutes on a plate shaker at 200 rpm, filtered on a vacuum box, and washed on the same apparatus by the addition of 100 μL of binding buffer containing 1mM MnCl_2. After insertion of the multiscreen plates into adapter plates (Packard, Meriden, Coon., cat# 6005178), 100 μL of Microscint-20 (Packard cat# 6013621) was added to each well. The plates were then sealed, placed on a shaker for 30 seconds, and counted on a Topcount microplate scintillation counter (Packard). Control wells containing DMSO alone were used to determine the level of VCAM-Ig binding corresponding to 0% inhibition. […] Percent inhibition was then calculated for each test well and the IC$50$ was determined from a ten point titration using a validated four parameter fit algorithm.

Assay [2] deals with T2, VLA-4 (α4β1) on Jurkat cells, clone E6-1 (UniProt P13612 34-1032; P05556 21-798, limits assumed).
T2 construct: whole, on cells; Endogenous integrin on Jurkat cells; also called very late antigen-4; CD49d/CD29
The assay is described as follows: radiolabeled VCAM-Ig (~100 pM) on Jurkat cells, 1 mM MnCl2, filter plates, scintillation counting. The procedure:
as §1, with “μM. Jurkat cells were centrifuged at 400×g for five minutes and resuspended in binding buffer (25 mM HEPES, 150 mM NaCl, 3 mM KCl, 2 mM glucose, 0.1% bovine serum albumin, pH 7.4). The cells were centrifuged again and resuspended in binding buffer supplemented with MnCl_2 at a final concentration of 1 mM.” for “μM.”, “30 minutes,” for “45 minutes on a plate shaker at 200 rpm,”, “1 mM” for “1mM”, “Conn.,” for “Coon.,”, “$IC50$” for “IC$50$”

T2 sequence (P13612 34-1032 limits assumed, chain 1 of 2): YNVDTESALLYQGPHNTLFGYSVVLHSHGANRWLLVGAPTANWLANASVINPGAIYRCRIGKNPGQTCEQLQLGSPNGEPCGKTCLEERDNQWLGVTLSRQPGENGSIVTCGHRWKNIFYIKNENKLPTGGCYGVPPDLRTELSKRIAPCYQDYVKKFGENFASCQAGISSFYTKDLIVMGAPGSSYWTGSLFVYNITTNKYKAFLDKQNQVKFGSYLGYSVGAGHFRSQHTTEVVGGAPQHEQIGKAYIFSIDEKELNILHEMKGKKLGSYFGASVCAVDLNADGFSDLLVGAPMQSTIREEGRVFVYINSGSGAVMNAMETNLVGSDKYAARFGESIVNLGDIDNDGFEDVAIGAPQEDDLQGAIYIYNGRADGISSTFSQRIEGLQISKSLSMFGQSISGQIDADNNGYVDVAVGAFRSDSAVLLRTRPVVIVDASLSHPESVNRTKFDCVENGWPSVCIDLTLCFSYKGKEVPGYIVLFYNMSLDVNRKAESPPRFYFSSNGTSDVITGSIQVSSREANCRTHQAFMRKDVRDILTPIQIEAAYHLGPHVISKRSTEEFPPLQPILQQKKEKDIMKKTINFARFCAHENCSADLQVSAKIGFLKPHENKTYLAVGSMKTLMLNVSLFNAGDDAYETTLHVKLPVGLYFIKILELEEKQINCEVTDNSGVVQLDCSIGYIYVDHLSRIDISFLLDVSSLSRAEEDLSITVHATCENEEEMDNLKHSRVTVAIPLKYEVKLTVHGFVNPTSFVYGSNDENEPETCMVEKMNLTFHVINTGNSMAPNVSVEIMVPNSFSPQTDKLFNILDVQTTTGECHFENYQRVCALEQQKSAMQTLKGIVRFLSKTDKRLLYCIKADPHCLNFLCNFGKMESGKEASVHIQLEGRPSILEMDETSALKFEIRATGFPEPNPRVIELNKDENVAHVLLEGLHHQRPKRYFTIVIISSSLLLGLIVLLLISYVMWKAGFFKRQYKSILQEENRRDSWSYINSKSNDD
T2 sequence (P05556 21-798 limits assumed, chain 2 of 2): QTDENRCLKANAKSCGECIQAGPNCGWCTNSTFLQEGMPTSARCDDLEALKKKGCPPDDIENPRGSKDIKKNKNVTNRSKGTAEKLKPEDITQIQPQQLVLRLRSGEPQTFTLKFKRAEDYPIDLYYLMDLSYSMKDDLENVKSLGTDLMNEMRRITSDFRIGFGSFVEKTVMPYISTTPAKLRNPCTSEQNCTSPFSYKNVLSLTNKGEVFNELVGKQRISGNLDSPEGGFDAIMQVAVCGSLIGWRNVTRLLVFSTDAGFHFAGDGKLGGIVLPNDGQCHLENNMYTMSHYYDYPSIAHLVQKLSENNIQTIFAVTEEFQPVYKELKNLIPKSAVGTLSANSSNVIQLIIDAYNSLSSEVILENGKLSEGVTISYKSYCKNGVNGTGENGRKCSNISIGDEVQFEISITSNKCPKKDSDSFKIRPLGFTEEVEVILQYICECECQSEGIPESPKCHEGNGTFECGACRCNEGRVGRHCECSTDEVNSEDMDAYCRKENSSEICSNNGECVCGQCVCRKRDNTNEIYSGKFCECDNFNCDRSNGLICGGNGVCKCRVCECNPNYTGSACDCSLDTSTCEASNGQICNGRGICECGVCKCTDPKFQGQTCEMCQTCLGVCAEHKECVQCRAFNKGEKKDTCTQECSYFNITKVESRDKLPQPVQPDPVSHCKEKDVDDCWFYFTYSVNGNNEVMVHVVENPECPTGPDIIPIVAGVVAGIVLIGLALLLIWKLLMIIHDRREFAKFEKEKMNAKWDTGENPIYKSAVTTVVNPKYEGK
T1 sequence (P13612 34-1032, chain 1 of 2): as the sequence (P13612 34-1032 limits assumed, chain 1 of 2) above
T1 sequence (P26010 20-798, chain 2 of 2): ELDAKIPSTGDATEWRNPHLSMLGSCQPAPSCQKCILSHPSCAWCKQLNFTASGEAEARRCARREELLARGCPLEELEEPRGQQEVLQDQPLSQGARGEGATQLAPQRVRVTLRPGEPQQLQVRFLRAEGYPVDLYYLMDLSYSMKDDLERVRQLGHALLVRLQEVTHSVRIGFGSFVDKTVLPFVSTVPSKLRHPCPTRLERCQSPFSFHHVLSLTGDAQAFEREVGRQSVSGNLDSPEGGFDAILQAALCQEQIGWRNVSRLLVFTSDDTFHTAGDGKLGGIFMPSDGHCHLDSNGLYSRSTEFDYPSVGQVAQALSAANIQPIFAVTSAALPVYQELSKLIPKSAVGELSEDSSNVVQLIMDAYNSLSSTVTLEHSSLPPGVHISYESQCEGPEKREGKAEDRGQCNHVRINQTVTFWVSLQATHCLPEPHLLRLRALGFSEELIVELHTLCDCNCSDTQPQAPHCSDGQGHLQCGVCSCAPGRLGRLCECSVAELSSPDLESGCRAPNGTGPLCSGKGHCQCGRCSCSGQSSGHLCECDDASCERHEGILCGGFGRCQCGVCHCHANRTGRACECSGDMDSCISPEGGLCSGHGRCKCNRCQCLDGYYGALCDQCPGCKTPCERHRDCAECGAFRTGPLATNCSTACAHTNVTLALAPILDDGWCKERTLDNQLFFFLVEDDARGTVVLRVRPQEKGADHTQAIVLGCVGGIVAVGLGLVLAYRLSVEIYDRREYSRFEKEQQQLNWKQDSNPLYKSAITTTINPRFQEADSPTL

B1: VCAM-Ig fusion protein (Fc fusion, not shown: small tags and cut ends)
chain: FKIETTPESRYLAQIGDSVSLTCSTTGCESPFFSWRTQIDSPLNGKVTNEGTTSTLTMNPVSFGNEHSYLCTATCESRKLEKGIQVEIYSFPKDPEIHLSGPLEAGKPITVKCSVADVYPFDRLEIDLLKGDHLMKSQEFLEDADRKSLETKSLEVTFTPVIEDIGKVLVCRAKLHIDEMDSVPTVRQAVKEL
modifications: labeled with 125I-Bolton Hunter reagent (sites not given)
Regarding B1, the binding result in assay [1] and in assay [2] was “binds” in each case.
